Each sequence was assayed on Escherichia coli TOP10 (assay: shrunken log2 fold change of peptide-encoding DNA abundance (4.5 h post-induction vs induction); higher = less antimicrobial activity (less host growth inhibition)). Details: time post-induction: 4.5 h; library: site-saturation at positions 5, 18, 19, 20.
RRIRKRPPRLPRPRPRPEPSPRP was tested, and the “shrunken log2 fold change” value was 0.956.
RRIRGRPPRLPRPRPRPWCFPRP was tested, and the “shrunken log2 fold change” value was 0.212.
RRIRCRPPRLPRPRPRPDQLPRP was tested, and the “shrunken log2 fold change” value was 0.101.
In the case of RRIRVRPPRLPRPRPRPWNTPRP, the “shrunken log2 fold change” value is reported as -0.878.
For RRIRLRPPRLPRPRPRPGVPPRP, the “shrunken log2 fold change” value was 0.0447.
With RRIRERPPRLPRPRPRPNHHPRP the “shrunken log2 fold change” value was -0.845.
In the case of RRIRHRPPRLPRPRPRPIHKPRP, the “shrunken log2 fold change” value is reported as -1.25.
In the case of RRIRPRPPRLPRPRPRPLMGPRP, the “shrunken log2 fold change” value is reported as -0.0395.
With RRIRKRPPRLPRPRPRPHRCPRP the “shrunken log2 fold change” value was 0.0753.
RRIRLRPPRLPRPRPRPHSMPRP was tested, and the “shrunken log2 fold change” value was -0.506.
For RRIRVRPPRLPRPRPRPHHTPRP, the “shrunken log2 fold change” value was -0.731.
In the case of RRIRKRPPRLPRPRPRPMGSPRP, the “shrunken log2 fold change” value is reported as 0.0567.
For RRIRDRPPRLPRPRPRPVLRPRP, the “shrunken log2 fold change” value was -0.0147.
In the case of RRIRDRPPRLPRPRPRPCMNPRP, the “shrunken log2 fold change” value is reported as 0.119.
In the case of RRIRKRPPRLPRPRPRPNMIPRP, the “shrunken log2 fold change” value is reported as 0.0348.
For RRIRIRPPRLPRPRPRPPTDPRP, the “shrunken log2 fold change” value was 1.33.
For RRIRERPPRLPRPRPRPGYLPRP, the “shrunken log2 fold change” value was -0.426.
In the case of RRIRSRPPRLPRPRPRPWRFPRP, the “shrunken log2 fold change” value is reported as 0.566.
RRIRCRPPRLPRPRPRPANIPRP was tested, and the “shrunken log2 fold change” value was -0.443.
With RRIRCRPPRLPRPRPRPQTWPRP the “shrunken log2 fold change” value was 0.295.
In the case of RRIRFRPPRLPRPRPRPQRTPRP, the “shrunken log2 fold change” value is reported as -0.101.
With RRIRMRPPRLPRPRPRPRQCPRP the “shrunken log2 fold change” value was 0.594.
In the case of RRIRQRPPRLPRPRPRPFAGPRP, the “shrunken log2 fold change” value is reported as 0.0242.
With RRIRMRPPRLPRPRPRPHHWPRP the “shrunken log2 fold change” value was 0.439.
RRIRQRPPRLPRPRPRPTLRPRP was tested, and the “shrunken log2 fold change” value was -0.0246.
RRIRNRPPRLPRPRPRPINQPRP was tested, and the “shrunken log2 fold change” value was -0.14.
In the case of RRIRMRPPRLPRPRPRPHETPRP, the “shrunken log2 fold change” value is reported as -0.00213.
With RRIRKRPPRLPRPRPRPYTKPRP the “shrunken log2 fold change” value was -0.138.
In the case of RRIRRRPPRLPRPRPRPAICPRP, the “shrunken log2 fold change” value is reported as 0.134.
With RRIRDRPPRLPRPRPRPFSVPRP the “shrunken log2 fold change” value was -0.0199.
In the case of RRIRPRPPRLPRPRPRPKHLPRP, the “shrunken log2 fold change” value is reported as -0.355.
With RRIRLRPPRLPRPRPRPQLFPRP the “shrunken log2 fold change” value was 0.131.
With RRIRDRPPRLPRPRPRPIHPPRP the “shrunken log2 fold change” value was -0.125.
RRIRPRPPRLPRPRPRPIDSPRP was tested, and the “shrunken log2 fold change” value was -0.018.
For RRIRHRPPRLPRPRPRPPVHPRP, the “shrunken log2 fold change” value was 0.00286.
For RRIRLRPPRLPRPRPRPHTLPRP, the “shrunken log2 fold change” value was -0.224.
RRIRTRPPRLPRPRPRPWNLPRP was tested, and the “shrunken log2 fold change” value was -0.031.
RRIRTRPPRLPRPRPRPKWPPRP was tested, and the “shrunken log2 fold change” value was 1.51.
With RRIRARPPRLPRPRPRPHPLPRP the “shrunken log2 fold change” value was -0.0796.
In the case of RRIRERPPRLPRPRPRPQTCPRP, the “shrunken log2 fold change” value is reported as -0.0436.
In the case of RRIRNRPPRLPRPRPRPADSPRP, the “shrunken log2 fold change” value is reported as -0.0169.
With RRIRMRPPRLPRPRPRPPDIPRP the “shrunken log2 fold change” value was 0.121.
In the case of RRIRERPPRLPRPRPRPHGIPRP, the “shrunken log2 fold change” value is reported as -0.00973.
For RRIRERPPRLPRPRPRPKFPPRP, the “shrunken log2 fold change” value was 0.0509.
RRIRLRPPRLPRPRPRPQRFPRP was tested, and the “shrunken log2 fold change” value was -0.142.
RRIRNRPPRLPRPRPRPKKKPRP was tested, and the “shrunken log2 fold change” value was 0.011.
RRIRARPPRLPRPRPRPGDEPRP was tested, and the “shrunken log2 fold change” value was 0.393.
With RRIRKRPPRLPRPRPRPYYHPRP the “shrunken log2 fold change” value was 0.158.
In the case of RRIRGRPPRLPRPRPRPWCTPRP, the “shrunken log2 fold change” value is reported as -0.0466.
For RRIRERPPRLPRPRPRPTLEPRP, the “shrunken log2 fold change” value was 0.034.
In the case of RRIRTRPPRLPRPRPRPHREPRP, the “shrunken log2 fold change” value is reported as -0.075.
RRIRDRPPRLPRPRPRPKTQPRP was tested, and the “shrunken log2 fold change” value was -0.0316.
With RRIRYRPPRLPRPRPRPFRWPRP the “shrunken log2 fold change” value was -0.14.
With RRIRDRPPRLPRPRPRPLPGPRP the “shrunken log2 fold change” value was 0.312.
For RRIRDRPPRLPRPRPRPIDNPRP, the “shrunken log2 fold change” value was 0.131.
In the case of RRIRERPPRLPRPRPRPIKHPRP, the “shrunken log2 fold change” value is reported as -0.967.
For RRIRQRPPRLPRPRPRPILWPRP, the “shrunken log2 fold change” value was -0.185.
With RRIRFRPPRLPRPRPRPHYKPRP the “shrunken log2 fold change” value was -0.408.
In the case of RRIRGRPPRLPRPRPRPCLLPRP, the “shrunken log2 fold change” value is reported as 0.164.
For RRIRLRPPRLPRPRPRPVCEPRP, the “shrunken log2 fold change” value was 0.39.
In the case of RRIRHRPPRLPRPRPRPNARPRP, the “shrunken log2 fold change” value is reported as -0.0163.
For RRIRFRPPRLPRPRPRPPDAPRP, the “shrunken log2 fold change” value was 0.451.
With RRIRRRPPRLPRPRPRPEHRPRP the “shrunken log2 fold change” value was 0.343.
With RRIRMRPPRLPRPRPRPVADPRP the “shrunken log2 fold change” value was 3.
RRIRTRPPRLPRPRPRPWYFPRP was tested, and the “shrunken log2 fold change” value was -0.432.
In the case of RRIRMRPPRLPRPRPRPDKTPRP, the “shrunken log2 fold change” value is reported as 0.00408.
With RRIRTRPPRLPRPRPRPSGLPRP the “shrunken log2 fold change” value was -0.573.
RRIRMRPPRLPRPRPRPWSCPRP was tested, and the “shrunken log2 fold change” value was -0.0965.
For RRIRTRPPRLPRPRPRPLDSPRP, the “shrunken log2 fold change” value was -0.0239.
In the case of RRIRPRPPRLPRPRPRPHTGPRP, the “shrunken log2 fold change” value is reported as -0.0698.
With RRIRHRPPRLPRPRPRPEIRPRP the “shrunken log2 fold change” value was 0.0924.
RRIRVRPPRLPRPRPRPIIGPRP was tested, and the “shrunken log2 fold change” value was 0.0272.
For RRIRMRPPRLPRPRPRPEDWPRP, the “shrunken log2 fold change” value was 3.63.
In the case of RRIRFRPPRLPRPRPRPSQSPRP, the “shrunken log2 fold change” value is reported as -0.0504.
With RRIRYRPPRLPRPRPRPYLCPRP the “shrunken log2 fold change” value was -1.35.
For RRIRMRPPRLPRPRPRPAECPRP, the “shrunken log2 fold change” value was 0.042.
For RRIRARPPRLPRPRPRPPTFPRP, the “shrunken log2 fold change” value was 0.158.
For RRIRWRPPRLPRPRPRPQWYPRP, the “shrunken log2 fold change” value was -0.28.
In the case of RRIRRRPPRLPRPRPRPLYTPRP, the “shrunken log2 fold change” value is reported as -0.132.
RRIRHRPPRLPRPRPRPYAIPRP was tested, and the “shrunken log2 fold change” value was -0.149.
With RRIRGRPPRLPRPRPRPWVWPRP the “shrunken log2 fold change” value was 0.368.
With RRIRCRPPRLPRPRPRPLRRPRP the “shrunken log2 fold change” value was 0.519.
With RRIRIRPPRLPRPRPRPKAVPRP the “shrunken log2 fold change” value was -0.00677.
With RRIRWRPPRLPRPRPRPAFQPRP the “shrunken log2 fold change” value was 0.62.
For RRIRWRPPRLPRPRPRPDVVPRP, the “shrunken log2 fold change” value was 0.0719.
In the case of RRIRVRPPRLPRPRPRPIICPRP, the “shrunken log2 fold change” value is reported as -0.448.
For RRIRVRPPRLPRPRPRPERDPRP, the “shrunken log2 fold change” value was -0.15.
In the case of RRIRYRPPRLPRPRPRPYHPPRP, the “shrunken log2 fold change” value is reported as -0.152.
For RRIRSRPPRLPRPRPRPKFAPRP, the “shrunken log2 fold change” value was 0.0751.
For RRIRPRPPRLPRPRPRPDPGPRP, the “shrunken log2 fold change” value was 0.0845.
With RRIRARPPRLPRPRPRPERNPRP the “shrunken log2 fold change” value was 0.848.
RRIRYRPPRLPRPRPRPRQNPRP was tested, and the “shrunken log2 fold change” value was 0.345.
With RRIRIRPPRLPRPRPRPEIFPRP the “shrunken log2 fold change” value was -0.0951.
With RRIRGRPPRLPRPRPRPGQCPRP the “shrunken log2 fold change” value was 0.275.
RRIRIRPPRLPRPRPRPLWGPRP was tested, and the “shrunken log2 fold change” value was 0.0579.
With RRIRARPPRLPRPRPRPQAGPRP the “shrunken log2 fold change” value was 0.195.
In the case of RRIRKRPPRLPRPRPRPENGPRP, the “shrunken log2 fold change” value is reported as 0.0267.
For RRIRVRPPRLPRPRPRPLHNPRP, the “shrunken log2 fold change” value was -0.143.
In the case of RRIRNRPPRLPRPRPRPAHEPRP, the “shrunken log2 fold change” value is reported as -0.0423.
With RRIRYRPPRLPRPRPRPANCPRP the “shrunken log2 fold change” value was -0.225.
RRIRVRPPRLPRPRPRPFDYPRP was tested, and the “shrunken log2 fold change” value was -0.221.
RRIRVRPPRLPRPRPRPIVHPRP was tested, and the “shrunken log2 fold change” value was -0.00223.
RRIRHRPPRLPRPRPRPGPRPRP was tested, and the “shrunken log2 fold change” value was 0.417.
In the case of RRIRVRPPRLPRPRPRPEYIPRP, the “shrunken log2 fold change” value is reported as -0.00622.
RRIRDRPPRLPRPRPRPNNKPRP was tested, and the “shrunken log2 fold change” value was -0.682.
For RRIRRRPPRLPRPRPRPWQGPRP, the “shrunken log2 fold change” value was -0.00783.
RRIRVRPPRLPRPRPRPCINPRP was tested, and the “shrunken log2 fold change” value was 0.0189.
For RRIRPRPPRLPRPRPRPARDPRP, the “shrunken log2 fold change” value was 0.208.
RRIRYRPPRLPRPRPRPSVTPRP was tested, and the “shrunken log2 fold change” value was -0.421.
For RRIRMRPPRLPRPRPRPVFWPRP, the “shrunken log2 fold change” value was 0.884.
In the case of RRIRFRPPRLPRPRPRPKQEPRP, the “shrunken log2 fold change” value is reported as 0.246.
For RRIRLRPPRLPRPRPRPFEYPRP, the “shrunken log2 fold change” value was -0.0121.
With RRIRQRPPRLPRPRPRPPFRPRP the “shrunken log2 fold change” value was 0.14.
With RRIRERPPRLPRPRPRPFFQPRP the “shrunken log2 fold change” value was -0.173.
In the case of RRIRVRPPRLPRPRPRPPTPPRP, the “shrunken log2 fold change” value is reported as 0.548.
RRIRTRPPRLPRPRPRPAQTPRP was tested, and the “shrunken log2 fold change” value was 0.712.
With RRIRKRPPRLPRPRPRPHSCPRP the “shrunken log2 fold change” value was 0.0828.
With RRIRNRPPRLPRPRPRPDICPRP the “shrunken log2 fold change” value was 0.0866.
In the case of RRIRFRPPRLPRPRPRPHIIPRP, the “shrunken log2 fold change” value is reported as -0.879.
In the case of RRIRCRPPRLPRPRPRPDTDPRP, the “shrunken log2 fold change” value is reported as -0.0352.
In the case of RRIRTRPPRLPRPRPRPRHFPRP, the “shrunken log2 fold change” value is reported as -0.085.
RRIRQRPPRLPRPRPRPPQFPRP was tested, and the “shrunken log2 fold change” value was 0.076.
RRIRDRPPRLPRPRPRPLFEPRP was tested, and the “shrunken log2 fold change” value was 0.7.
For RRIRARPPRLPRPRPRPDNEPRP, the “shrunken log2 fold change” value was 0.301.
In the case of RRIRGRPPRLPRPRPRPVEHPRP, the “shrunken log2 fold change” value is reported as 0.117.

Source: the supplement of paper PMC9112550, “Optimization of the antimicrobial peptide Bac7 by deep mutational scanning” (BMC Biology, 2022)
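Further: peptides expressed intracellularly from a pBAD plasmid library in pooled LB shake-flask culture, induced with 0.3% L-arabinose, DNA abundance read by NGS, three biological replicates, DESeq2 with apeglm shrinkage.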
